# Results from US20160201097A1, “Materials and Methods of Producing 7-Carbon Monomers” (INVISTA North America S.á.r.l., priority 2014, published 2016).
# B1: SEQ ID NO: 7: Chromobacterium violaceum ω-transaminase, N-terminal HIS tagged (protein, listed as Chromobacterium violaceum)
# chain: MQKQRTTSQWRELDAAHHLHPFTDTASLNQAGARVMTRGEGVYLWDSEGNKIIDGMAGLWCVNVGYGRKDFAEAARRQMEELPFYNTFFKTTHPAVVELSSLLAEVTPAGFDRVFYTNSGSESVDTMIRMVRRYWDVQGKPEKKTLIGRWNGYHGSTIGGASLGGMKYMHEQGDLPIPGMAHIEQPWWYKHGKDMTPDEFGVVAARWLEEKILEIGADKVAAFVGEPIQGAGGVIVPPATYWPEIERICRKYDVLLVADEVICGFGRTGEWFGHQHFGFQPDLFTAAKGLSSGYLPIGAVFVGKRVAEGLIAGGDFNHGFTYSGHPVCAAVAHANVAALRDEGIVQRVKDDIGPYMQKRWRETFSRFEHVDDVRGVGMVQAFTLVKNKAKRELFPDFGEIGTLCRDIFFRNNLIMRACGDHIVSAPPLVMTRAEVDEMLAVAERCLEEFEQTLKARGLA
# modifications: N-terminal His tag
# notes: Chromobacterium violaceum ω-transaminase, N-terminal HIS tagged
# B2: SEQ ID NO: 4: Segniliparus rugosus carboxylate reductase, N-terminal HIS tagged (protein, listed as Segniliparus rugosus)
# chain: MGDGEERAKRFFQRIGELSATDPQFAAAAPDPAVVEAVSDPSLSFTRYLDTLMRGYAERPALAHRVGAGYETISYGELWARVGAIAAAWQADGLAPGDFVATVGFTSPDYVAVDLAAARSGLVSVPLQAGASLAQLVGILEETEPKVLAASASSLEGAVACALAAPSVQRLVVFDLRGPDASESAADERRGALADAEEQLARAGRAVVVETLADLAARGEALPEAPLFEPAEGEDPLALLIYTSGSTGAPKGAMYSQRLVSQLWGRTPVVPGMPNISLHYMPLSHSYGRAVLAGALSAGGTAHFTANSDLSTLFEDIALARPTFLALVPRVCEMLFQESQRGQDVAELRERVLGGRLLVAVCGSAPLSPEMRAFMEEVLGFPLLDGYGSTEALGVMRNGIIQRPPVIDYKLVDVPELGYRTTDKPYPRGELCIRSTSLISGYYKRPEITAEVFDAQGYYKTGDVMAEIAPDHLVYVDRSKNVLKLSQGEFVAVAKLEAAYGTSPYVKQIFVYGNSERSFLLAVVVPNAEVLGARDQEEAKPLIAASLQKIAKEAGLQSYEVPRDFLIETEPFTTQNGLLSEVGKLLRPKLKARYGEALEARYDEIAHGQADELRALRDGAGQRPVVETVVRAAVAISGSEGAEVGPEANFADLGGDSLSALSLANLLHDVFEVEVPVRIIIGPTASLAGIAKHIEAERAGASAPTAASVHGAGATRIRASELTLEKFLPEDLLAAAKGLPAADQVRTVLLTGANGWLGRFLALEQLERLARSGQDGGKLICLVRGKDAAAARRRIEETLGTDPALAARFAELAEGRLEVVPGDVGEPKFGLDDAAWDRLAEEVDVIVHPAALVNHVLPYHQLFGPNVVGTAEIIRLAITAKRKPVTYLSTVAVAAGVEPSSFEEDGDIRAVVPERPLGDGYANGYGNSKWAGEVLLREAHELVGLPVAVFRSDMILAHTRYTGQLNVPDQFTRLVLSLLATGIAPKSFYQQGAAGERQRAHYDGIPVDFTAEAITTLGAEPSWFDGGAGFRSFDVFNPHHDGVGLDEFVDWLIEAGHPISRIDDHKEWFARFETAVRGLPEAQRQHSLLPLLRAYSFPHPPVDGSVYPTGKFQGAVKAAQVGSDHDVPHLGKALIVKYADDLKALGLL
# modifications: N-terminal His tag
# notes: Segniliparus rugosus carboxylate reductase, N-terminal HIS tagged
# B3: SEQ ID NO: 5: Mycobacterium massiliense carboxylate reductase, N-terminal HIS tagged (protein)
# chain: MTNETNPQQEQLSRRIESLRESDPQFRAAQPDPAVAEQVLRPGLHLSEAIAALMTGYAERPALGERARELVIDQDGRTTLRLLPRFDTTTYGELWSRTTSVAAAWHHDATHPVKAGDLVATLGFTSIDYTVLDLAIMILGGVAVPLQTSAPASQWTTILAEAEPNTLAVSIELIGAAMESVRATPSIKQVVVFDYTPEVDDQREAFEAASTQLAGTGIALETLDAVIARGAALPAAPLYAPSAGDDPLALLIYTSGSTGAPKGAMHSENIVRRWWIREDVMAGTENLPMIGLNFMPMSHIMGRGTLTSTLSTGGTGYFAASSDMSTLFEDMELIRPTALALVPRVCDMVFQRFQTEVDRRLASGDTASAEAVAAEVKADIRDNLFGGRVSAVMVGSAPLSEELGEFIESCFELNLTDGYGSTEAGMVFRDGIVQRPPVIDYKLVDVPELGYFSTDKPHPRGELLLKTDGMFLGYYKRPEVTASVFDADGFYMTGDIVAELAHDNIEIIDRRNNVLKLSQGEFVAVATLEAEYANSPVVHQIYVYGSSERSYLLAVVVPTPEAVAAAKGDAAALKTTIADSLQDIAKEIQLQSYEVPRDFIIEPQPFTQGNGLLTGIAKLARPNLKAHYGPRLEQMYAEIAEQQAAELRALHGVDPDKPALETVLKAAQALLGVSSAELAADAHFTDLGGDSLSALSFSDLLRDIFAVEVPVGVIVSAANDLGGVAKFVDEQRHSGGTRPTAETVHGAGHTEIRAADLTLDKFIDEATLHAAPSLPKAAGIPHTVLLTGSNGYLGHYLALEWLERLDKTDGKLIVIVRGKNAEAAYGRLEEAFDTGDTELLAHFRSLADKHLEVLAGDIGDPNLGLDADTWQRLADTVDVIVHPAALVNHVLPYNQLFGPNVVGTAEIIKLAITTKIKPVTYLSTVAVAAYVDPTTFDEESDIRLISAVRPIDDGYANGYGNAKWAGEVLLREAHDLCGLPVAVFRSDMILAHSRYTGQLNVPDQFTRLILSLIATGIAPGSFYQAQTTGERPLAHYDGLPGDFTAEAITTLGTQVPEGSEGFVTYDCVNPHADGISLDNFVDWLIEAGYPIARIDNYTEWFTRFDTAIRGLSEKQKQHSLLPLLHAFEQPSAAENHGVVPAKRFQHAVQAAGIGPVGQDGTTDIPHLSRRLIVKYAKDLEQLGLL
# modifications: N-terminal His tag; Mycobacterium massiliense
# notes: Mycobacterium massiliense carboxylate reductase, N-terminal HIS tagged
# Columns and labels:
# [1] = from the literature; cited from earlier work
# [2] = ω-transaminase activity, reverse direction: 7-aminoheptanoate to pimelate semialdehyde (L-alanine formation by RP-HPLC); assay type: biochemical; conditions: cell free extract, 10 mM 7-aminoheptanoate, 10 mM pyruvate, pH 7.5, 25° C., 4 h; against the empty vector control (FIG. 13)
# Protocol: (§1) A nucleotide sequence encoding an N-terminal His-tag was added to the nucleic acid sequences from Chromobacterium violaceum, Pseudomonas syringae, Rhodobacter sphaeroides, and Vibrio fluvialis encoding the ω-transaminases of SEQ ID NOs: 7, 9, 10 and 12, respectively (see FIG. 6) such that N-terminal HIS tagged ω-transaminases could be produced. Each of the resulting modified genes was cloned into a pET21a expression vector under control of the T7 promoter and each expression vector was transformed into a BL21[DE3] E. coli host. The resulting recombinant E. coli strains were cultivated at 37° C. in a 250 mL shake flask culture containing 50 mL LB media and antibiotic selection pressure, with shaking at 230 rpm. Each culture was induced overnight at 16° C. using 1 mM IPTG.
# (§2) The pellet from each induced shake flask culture was harvested via centrifugation. Each pellet was resuspended and lysed via sonication. The cell debris was separated from the supernatant via centrifugation and the cell free extract was used immediately in enzyme activity assays.
# Enzyme activity assays in the reverse direction (i.e., 7-aminoheptanoate to pimelate semialdehyde) were performed in a buffer composed of a final concentration of 50 mM HEPES buffer (pH=7.5), 10 mM 7-aminoheptanoate, 10 mM pyruvate and 100 μM pyridoxyl 5′ phosphate. Each enzyme activity assay reaction was initiated by adding cell free extract of the ω-transaminase gene product or the empty vector control to the assay buffer containing the 7-aminoheptanoate and incubated at 25° C. for 4 h, with shaking at 250 rpm. The formation of L-alanine from pyruvate was quantified via RP-HPLC.
# [3] = ω-transaminase activity: 7-aminoheptanol to 7-oxoheptanol (L-alanine formation by RP-HPLC); assay type: biochemical
# Protocol: A nucleotide sequence encoding an N-terminal His-tag was added to the Chromobacterium violaceum, Pseudomonas syringae and Rhodobacter sphaeroides nucleic acids encoding the ω-transaminases of SEQ ID NOs: 7, 9 and 10, respectively (see FIG. 6) such that N-terminal HIS tagged ω-transaminases could be produced. The modified genes were cloned into a pET21a expression vector under the T7 promoter. Each expression vector was transformed into a BL21[DE3] E. coli host. Each resulting recombinant E. coli strain were cultivated at 37° C. in a 250 mL shake flask culture containing 50 mL LB media and antibiotic selection pressure, with shaking at 230 rpm. Each culture was induced overnight at 16° C. using 1 mM IPTG.
# as §2
# Enzyme activity assays in the reverse direction (i.e., 7-aminoheptanol to 7-oxoheptanol) were performed in a buffer composed of a final concentration of 50 mM HEPES buffer (pH=7.5), 10 mM 7-aminoheptanol, 10 mM pyruvate, and […] pyridoxyl 5′ phosphate. Each enzyme activity assay reaction was initiated by adding cell free extract of the ω-transaminase gene product or the empty vector control to the assay buffer containing the 7-aminoheptanol and then incubated at 25° C. for 4 h, with shaking at 250 rpm. The formation of L-alanine was quantified via RP-HPLC.
# [4] = ω-transaminase activity, forward direction: pimelate semialdehyde to 7-aminoheptanoate (pyruvate formation by RP-HPLC); assay type: biochemical; conditions: conclusion from reverse and forward assays of Example 1
# Protocol: as §1, §2
# Enzyme activity in the forward direction (i.e., pimelate semialdehyde to 7-aminoheptanoate) was confirmed for the transaminases of SEQ ID NO 9, SEQ ID NO 10 and SEQ ID NO 12. Enzyme activity assays were performed in a buffer composed of a final concentration of 50 mM HEPES buffer (pH=7.5), 10 mM pimelate semialdehyde, 10 mM L-alanine and 100 μM pyridoxyl 5′ phosphate. Each enzyme activity assay reaction was initiated by adding a cell free extract of the ω-transaminase gene product or the empty vector control to the assay buffer containing the pimelate semialdehyde and incubated at 25° C. for 4 h, with shaking at 250 rpm. The formation of pyruvate was quantified via RP-HPLC.
# [5] = carboxylate reductase activity: pimelate to pimelate semialdehyde (NADPH consumption, A340); assay type: biochemical; conditions: purified enzyme enhanced by sfp gene product, 2 mM pimelate, pH 7.5, room temperature, 20 min; against the empty vector control (FIG. 8)
# Protocol: A nucleotide sequence encoding a HIS-tag was added to the nucleic acid sequences from Segniliparus rugosus and Segniliparus rotundus that encode the carboxylate reductases of SEQ ID NOs: 4 (EFV11917.1) and 6 (ADG98140.1), respectively (see FIG. 6), such that N-terminal HIS tagged carboxylate reductases could be produced. Each of the modified genes was cloned into a pET Duet expression vector along with a sfp gene encoding a HIS-tagged phosphopantetheine transferase from Bacillus subtilis, both under the T7 promoter. Each expression vector was transformed into a BL21[DE3] E. coli host and the resulting recombinant E. coli strains were cultivated at 37° C. in a 250 mL shake flask culture containing 50 mL LB media and antibiotic selection pressure, with shaking at 230 rpm. Each culture was induced overnight at 37° C. using an auto-induction media.
# The pellet from each induced shake flask culture was harvested via centrifugation. Each pellet was resuspended and lysed via sonication, and the cell debris was separated from the supernatant via centrifugation. […]
# Enzyme activity assays (i.e., from pimelate to pimelate semialdehyde) were performed in triplicate in a buffer composed of a final concentration of 50 mM HEPES buffer (pH=7.5), 2 mM pimelate, 10 mM MgCl2, 1 mM ATP and 1 mM NADPH. […] The consumption of NADPH was monitored by absorbance at 340 nm. […]
# [6] = carboxylate reductase activity: N7-acetyl-7-aminoheptanoate to N7-acetyl-7-aminoheptanal (NADPH consumption, A340); assay type: biochemical; conditions: purified enzyme enhanced by sfp gene product, 2 mM N7-acetyl-7-aminoheptanoate, pH 7.5, room temperature, 20 min; against the empty vector control (FIG. 10)
# Protocol: The activity of each of the N-terminal His-tagged carboxylate reductases of SEQ ID NOs: 3, 5, and 6 (see Examples 2 and 3, and FIG. 6) for converting N7-acetyl-7-aminoheptanoate to N7-acetyl-7-aminoheptanal was assayed in triplicate in a buffer composed of a final concentration of 50 mM HEPES buffer (pH=7.5), 2 mM N7-acetyl-7-aminoheptanoate, 10 mM MgCl2, 1 mM ATP, and 1 mM NADPH. The assays were initiated by adding purified carboxylate reductase and phosphopantetheine transferase or the empty vector control to the assay buffer containing the N7-acetyl-7-aminoheptanoate then incubated at room temperature for 20 min. The consumption of NADPH was monitored by absorbance at 340 nm.
molecule,measurement,setting,value
B1,activity on 7-aminoheptanoate (conversion to pimelate semialdehyde),[1],demonstrated analogous activity accepting 7-aminoheptanoic acid as amino donor
same,acceptance of 7-aminoheptanoate as substrate (conversion of pyruvate to L-alanine),[2],accepted 7-aminoheptanoate as substrate
same,acceptance of 7-aminoheptanol as substrate (conversion of pyruvate to L-alanine),"[3]; cell free extract, 10 mM 7-aminoheptanol, 10 mM pyruvate, pH 7.5, 25° C., 4 h, against the empty vector control (FIG. 17)",accepted 7-aminoheptanol as substrate
same,acceptance of 7-oxoheptanol as substrate forming 7-aminoheptanol,[3]; concluded from the reversibility of the ω-transaminase activity (Example 1),accept 7-oxoheptanol as substrate and form 7-aminoheptanol
same,"reversibility of ω-transaminase activity: pimelate semialdehyde accepted, 7-aminoheptanoate synthesized",[4],accepted pimelate semialdehyde as substrate and synthesized 7-aminoheptanoate as a reaction product
B2,acceptance of pimelate as substrate (NADPH consumption),[5],accepted pimelate as substrate
B3,acceptance of N7-acetyl-7-aminoheptanoate as substrate (NADPH consumption),[6],accepted N7-acetyl-7-aminoheptanoate as substrate
